We go through two molecules from doi:10.1101/835280, “Bayesian Modeling Reveals Ultrasensitivity Underlying Metabolic Compensation in the Cyanobacterial Circadian Clock” (bioRxiv, 2019).

Data set [1] concerns the molecule itself. Briefly: SEC; size-exclusion chromatography on a Superdex 75 16/60 prep grade column, last step of the purification of the 15N-labelled KaiA domains.
A further data set concerns the target T1, KaiA (Synechococcus elongatus PCC 7942, UniProt Q79PF6 1-284).
T1 construct: KaiA, circadian clock protein of Synechococcus elongatus PCC 7942; source: expressed and purified as previously described (Phong et al., 2013), anion exchange on HiTrap Q
T1 sequence (looked up): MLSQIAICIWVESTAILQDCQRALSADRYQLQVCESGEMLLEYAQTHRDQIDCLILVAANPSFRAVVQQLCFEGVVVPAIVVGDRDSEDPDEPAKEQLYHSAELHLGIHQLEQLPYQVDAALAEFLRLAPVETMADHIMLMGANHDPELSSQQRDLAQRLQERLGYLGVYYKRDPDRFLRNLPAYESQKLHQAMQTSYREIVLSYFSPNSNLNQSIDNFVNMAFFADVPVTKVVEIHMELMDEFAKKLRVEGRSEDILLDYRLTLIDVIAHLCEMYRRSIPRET
Briefly: co-IP; immunoprecipitation of KaiB-FLAG from an in vitro clock reaction of purified KaiA, KaiB-FLAG and KaiC (20 mM Tris-HCl pH 8, 150 mM NaCl, 5 mM MgCl2, 0.5 mM EDTA, 10% glycerol), time course; KaiA left in the supernatant read by SDS-PAGE (SYPRO Ruby) against 1.5 uM GFP as internal standard. The note with it: both partners purified.

B1: C-terminal domain of KaiA (residues 181-284) (domain or fragment, Synechococcus elongatus PCC 7942, UniProt Q79PF6 181-284, looked up)
chain: NLPAYESQKLHQAMQTSYREIVLSYFSPNSNLNQSIDNFVNMAFFADVPVTKVVEIHMELMDEFAKKLRVEGRSEDILLDYRLTLIDVIAHLCEMYRRSIPRET
notes: KaiA, Synechococcus elongatus PCC 7942, C-terminal domain, residues 181-284; U-[15N] labelled, grown in deuterated water; also called C-terminal KaiA; C-terminal fragment of KaiA; source: E. coli BL21(DE3), M9 medium with 15N-NH4Cl in 98% D2O, purified (Ni-NTA, SEC on Superdex 75)
B1: the “stoichiometry N” value in data set [1] was 2.

B2: KaiB-FLAG (natural protein, Synechococcus elongatus PCC 7942, UniProt Q79PF5 1-102, looked up)
chain: MSPRKTYILKLYVAGNTPNSVRALKTLKNILEVEFQGVYALKVIDVLKNPQLAEEDKILATPTLAKVLPLPVRRIIGDLSDREKVLIGLDLLYGELQDSDDF
notes: KaiB, circadian clock protein of Synechococcus elongatus PCC 7942; also called FLAG-tagged KaiB; source: expressed and purified as previously described (Phong et al., 2013), anion exchange on HiTrap Q
On to B2, for which the binding result in the data set with KaiA is on record as “binds”.
